Results as given in the nanobody polyreactivity screen of Harvey et al. (2022).

Experiment: yeast display, Sf9 membrane polyspecificity reagent, FACS + sequencing; frameworks hold sequencing errors
In short: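 Using colony PCR, genes from sorted yeast display clones were amplified, then sequenced on MiSeq at 2 × 250 and filtered by CDR length. The clones had been stained with 10% biotinylated, detergent-solubilized Sf9 membrane reagent for 1 hour at 4 °C and sorted by FACS into low and high (top ~1%) gates on anti-HA and streptavidin fluorescence. Polyreactivity labels come from the gate of origin.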

Row | Sequence | polyreactivity (PSR sort gate)
1 | QVQLVESGGGLVQAGGSLRLSCAASGRIFGTNSIGWYIQAPRKERELVSAISSSTSTNYADSVKGRFTISRDNAKNTVYLLMYSLKRDDTAFYYFDADELRTDWDYAQGYDYWGQGTQVTVSS | low polyreactivity
2 | QVQLVESGGGLVQAGGSLRLSCAASGRIFGTYAMGWYRQAPGKERELVAAITQSGGRTYYADSVKGRFTISRDNAKNTVYLQMNSLKPEDTAVYYCNKVTYRGIGLGYDYWGQGTQVTVSS | high polyreactivity
3 | QVQLVESGGGLVQAGGSLRLSCAASGRIFGVNAMGRYRQAPGKERELVAAIDWSDGSTYYADSVKGRFTISRDNAKNTVYLQMNSLKPEDTAVYYCAALPSFLAAQYGDDYWGQGTQVTVSS | low polyreactivity
4 | QVQLVESGGGLVQAGGSLRLSCAASGRIFGVNAMGWYRQAPGKERELVAAIRYSGGSTYYADSVKGRFTISRDNAKNTVYLQMNSLKPEDTAVYYCAKARYTYSWSFGYWGQGTQVTVSS | low polyreactivity
5 | QVQLVESGGGLVQAGGSLRLSCAASGRIFGVYAMGLYRQAPGKERELVAGITYSGGSTYYADSVKGRFTISRDNAKNTVYLQMNSLKPEDTAVYYCARYHWYYRVSKSDSWGQGTQVTVSS | high polyreactivity
6 | QVQLVESGGGLVQAGGSLRLSCAASGRIFGVYAMGWYRQAPGKEREFVASITRGGGRTYYADSVKGRFTISRDNAKNTVYLQMNSLKPEDTAVYYCNAVVNSYPYYYWGQGTQVTVSS | high polyreactivity
7 | QVQLVESGGGLVQAGGSLRLSCAASGRIFGVYAMGWYRQAPGKERELVAAISEGGGSTNYADSVKGRFSISRDNAKNTVYLQMNSLKPEDTAVYYCAATYRTGVRRYYSWGQGTQVTVSS | low polyreactivity
8 | QVQLVESGGGLVQAGGSLRLSCAASGRIFGVYAMGWYRQAPGKERELVAAITYRGASTYADSVKGRFTISRDNAKNTVYLQMNSLNPEDTAVYYCAAEPGSRSYGGDYWGQGTQVTVSS | high polyreactivity
9 | QVQLVESGGGLVQAGGSLRLSCAASGRIFGWNAMGWYRQAPGKERELVASIRSGGRTNYADSVKGRFTISRDNAKNTVYLQMNSLKPEDTAVYYCAVGPYYQSTQIYDYWGQGTQVTVSS | low polyreactivity
10 | QVQLVESGGGLVQAGGSLRLSCAASGRIFGWNAMGWYRQAPGKERELVATITDGTSTNYADSVKGRFTISRDNAKNTVYLQMYSLKPVDTAVYYCAKRVVTSLYKPDGVKYDYWGQGTQVTVSS | high polyreactivity
11 | QVQLVESGGGLVQAGGSLRLSCAASGRIFGWYAMGGYRQAPGKERELVAAITSGGRTKYADSVKGRLTISRDNAKNTVYLQMNSLKPEDTAVYYCAARPQISSFDGLYYWGQGTQVTVSS | high polyreactivity
12 | QVQLVESGGGLVQAGGSLRLSCAASGRIFGWYAMGWYRQAPGKERELVAAISWSGGSTYADSVKGRFTISRDNAKNTVYLQMNSLKPEDTAVYYCAADVAYVEYDYWGQGTQVTVSS | low polyreactivity
13 | QVQLVESGGGLVQAGGSLRLSCAASGRIFGYAMGWCRQAPRKERELVAAITSSGGRTYYADSVKGRFTISRDNAKNTVYLQMNSLKPEDTAVYYCAKKWPVYRSYDYWGQGTQVTVSS | high polyreactivity
14 | QVQLVESGGGLVQAGGSLRLSCAASGRIFGYNAMGWYRQAPGKERELVAAISSSGGSTYYADSVKGRFTISRDNAKNTVYLQMNSLKPEDTAVYYCAARRVTRTTVYRYQYYYWGQGTQVTVSS | high polyreactivity
15 | QVQLVESGGGLVQAGGSLRLSCAASGRIFGYNAMGWYRQAPGKERELVAAITQSGGTTYYADSVKGRFTISRDYAKNTVYLQMNSLKPEDTAVYYCARGTRYPNNPFDYWGLGTQVTVSS | high polyreactivity
16 | QVQLVESGGGLVQAGGSLRLSCAASGRIFGYNAMGWYRQAPGKERELVAALSWNGGSTYYADSVKGRFTISRDNAKNTVYLQMNSLKPEDTAVYYCNADPSDRRYPHTWTKMGYWGQGTQVTVSS | low polyreactivity
17 | QVQLVESGGGLVQAGGSLRLSCAASGRIFGYNTMGWYRQAPGNERELVATITGAGSTNYADSVKGLFTISRDNAKNTVYLQMNSLKPEDTAVYYCAASVRWPRVSQRARYGYYYWGQGTQVTVSS | high polyreactivity
18 | QVQLVESGGGLVQAGGSLRLSCAASGRIFGYTMGWYRQAPGKERELVAAISKSGGSTYYADSVKGRFTISRDNAKNTVYLQMNSLIPEDTAVYVCNKPQRILYDYWGQGSQVTVSS | high polyreactivity
19 | QVQLVESGGGLVQAGGSLRLSCAASGRIFGYTMGWYRQAPGKERELVAAISKSGGSTYYADSVKGRFTISRDNAKNTVYLQMNSLKPEDTAVYYCNKPQRILYDYWGQGTQVTVSS | high polyreactivity
20 | QVQLVESGGGLVQAGGSLRLSCAASGRIFGYYALGLSRQAPGKERELVAAINSGSRTYYADSVKGRFTISRDNAKNTVYLQMNSLKPEDTAVYYCAKVGRGNNYWGQGTQVTVSS | high polyreactivity
21 | QVQLVESGGGLVQAGGSLRLSCAASGRIFGYYAMEWNRQAPGKERELVATITFGGGSTYYADSVKGRFTISRDKAKNTVYLQMNSLKPEDTAVSFCAAEGVHYDGDYGTGYDYWGQCTQVTVSS | low polyreactivity

Row | Sequence | polyreactivity (PSR sort gate)
22 | QVQLVESGGGLVQAGGSLRLSCAASGRIFGYYAMGWSRPAPGKERELVATITFGGVSTYYADSVKGRFTISRDNAKNNVYLQMNSLKPEDTGVYYCAADSGYLGIYGDEYSWGQGTQVTVSS | low polyreactivity
23 | QVQLVESGGGLVQAGGSLRLSCAASGRIFGYYAMGWYRQAPGKERELVAAIDSSGGSTTYADSVKGRFTISRDYAKNTVYLQMNSLKPEDTAVYYCNAGYALRSGPWYYYELDYWGQGTQVTVSS | low polyreactivity
24 | QVQLVESGGGLVQAGGSLRLSCAASGRIFGYYAMGWYRQAPGKERELVATIRGGGSTNYADSVKGRCTISRDNAKNTVFLQMNSLKPEDTAVYYCAKPCAKWRGFDYWGQGTQVTVSS | low polyreactivity
25 | QVQLVESGGGLVQAGGSLRLSCAASGRIFGYYAMGWYRQAPGKEREWVAAINSGGSTNYADSVKGRFTISRDNAKNTVYLQMNSLIPEDTAVYYCAAGWRYRYFRSRNFYPYYYWGQGTQVTVSS | high polyreactivity
26 | QVQLVESGGGLVQAGGSLRLSCAASGRIFGYYAMGWYRQAPGKEREWVAAMSTNGGTTYYAYSVKGRFTISRDNAKNTVYLQMNSLKPEDTAVYYCAATYTVPGHARYDYWGQGTQVTVSS | low polyreactivity
27 | QVQLVESGGGLVQAGGSLRLSCAASGRIFGYYGMGWYRQAPGNERELVAAITYRGGSTYYADSVKGRFTISRDNAKNTVYLQMNSLKPEDTVVYYCGADGYSNYRYLYDYWGQGTQVTVSS | low polyreactivity
28 | QVQLVESGGGLVQAGGSLRLSCAASGRIFGYYMGWYRQAPGKERELVARITFRGGSTYYADSVKGRFTISRDNAKNTVYLQMNSLKPEDTAVYYCNASGKGGSTNRSDYWGQGTQVTVSW | high polyreactivity
29 | QVQLVESGGGLVQAGGSLRLSCAASGRIFGYYTMGWYRQAPGKERELVAAITRDGGSTYYADSVKGRFTISRDNAKNTVYLQMNSLKPEDTAVDYCTAASQSRYYYWGQGTQVTVSS | high polyreactivity
30 | QVQLVESGGGLVQAGGSLRLSCAASGRIFGYYTMGWYRQAPGKEWEVVAGISSGGSTNYADSVKGRFTISRDNAKNTVYLQMNSLKPEDTAVYDCAAAYPHFGGYRYDYWGQGTQVTVSS | high polyreactivity
31 | QVQLVESGGGLVQAGGSLRLSCAASGRIFHFNTMGWYRQAPGKERELVAAITSSGGSTNYADSVKGRFTISRDNAKNTVYLQMNSLKPEDTAVYYCNADTGAADYFDFDYWGQGTQVTVSS | low polyreactivity
32 | QVQLVESGGGLVQAGGSLRLSCAASGRIFHLYAMGWYRQAPGKERELVATINYEGGSTYYADSVKGRFTISRDNAKDTVYLQMNSLKPEDTAVYYCAADGYQDKYYWLETWVGYWGQGTQVTVSS | low polyreactivity
33 | QVQLVESGGGLVQAGGSLRLSCAASGRIFHPNAMGWYRQAPGKERELVAAITNSGGITYADSVKGRFTISRDNAKNTVYLQMNSLKPEDTAVYYCNTATNRFHYKYRKPYDYWGQGTQVTVSS | low polyreactivity
34 | QVQLVESGGGLVQAGGSLRLSCAASGRIFHQYAMGWYRQAPGKERELVAAITGGGSTYYADSVKGRFTISRDNAKNTVSLQMNSLKPEDTAVYYCAAPPFGYYEVGYDSWGQGTQVTVSS | low polyreactivity
35 | QVQLVESGGGLVQAGGSLRLSCAASGRIFHRYDMGWDRQAPGKEREFVAAISSRGGSTYYADSVKGRVTISRDYAKNTVYLQMNSLKPEDTAVYYCAAQNGYRSGEFYYWGQGTQVTVSP | high polyreactivity
36 | QVQLVESGGGLVQAGGSLRLSCAASGRIFHTYGMGWYRQAPGKERELVAAITWTGGSTYYADSVKGRFTISRDNAKNTVYLQMNSLKPEDTAVYYCAADYPRDIIGSMDYWGQGTQVTVSS | low polyreactivity
37 | QVQLVESGGGLVQAGGSLRLSCAASGRIFHTYGMGWYRQAPGKVRELVAAITWTGGSTYYADSVKGRFTISRDNAKNTVYLQMNSLKPEDTAVYYCNARYVYHSSFAGFDYWGQGTQVTVSS | low polyreactivity
38 | QVQLVESGGGLVQAGGSLRLSCAASGRIFHVNAMGWYRQAPGKERELVAAISTSGGRTYYADSVKGRFTISRDNAKNTVYLQLNSLKPEVTAVYYCAAVSRAPGLRYDYWGQGTQVTVSS | high polyreactivity
39 | QVQLVESGGGLVQAGGSLRLSCAASGRIFHYNAMGWYRQAPGKERELVAAISTGGSTNYADSVKGRFTISRDNAKNTVYLQMNSLKPEDTAVYYCAADHPVTYPTTKFDYWGQGTQVTVSS | low polyreactivity
40 | QVQLVESGGGLVQAGGSLRLSCAASGRIFHYYAMGWYRQAPGIERELVAAIRYSGGRTYYADSVKGRFTISRDNAKNTVYLQMNSLKPEDTAFYYCNAVPYVYKTITGDDYWGQGTQVTVSS | high polyreactivity
41 | QVQLVESGGGLVQAGGSLRLSCAASGRIFHYYAMGWYRQAPGKEWELVAAISTSGGSTYYADSVKGRFTISRDNANNTVYIQMNSLKPEDTAVYYCAAVLPRYRRFDYWGQGTQVTVSS | high polyreactivity
